Consider 17 molecules from patent US20120316071A1 (published 2012).

Positions count from the first letter of the chain named. Names may count otherwise.

The target in assay [1] is T1, Recombinant Human DLL4 (human, UniProt Q9NR61 27-524).
T1 construct: Bought recombinant protein (R&D Systems Cat#1506-D4/CF); also called delta-like protein 4; Delta-like 4
Kind of assay: ECL (MSD) 96-well plate assay; plate coated with 30 ug/mL DLL4; 0.02 uM Fab.

For assay [2], the target named is T1, Recombinant Human DLL4. Description: ECL (MSD) 96-well plate assay; plate coated with 15 ug/mL DLL4; 0.004 uM Fab.
Assay [3] deals with T2, Recombinant Human DLL4 (human, UniProt Q9NR61 27-524).
T2 construct: Bought recombinant protein (R&D Systems Cat#1506-D4/CF), coated on the plate; also called delta-like protein 4; Delta-like 4
Description: ELISA, DLL4 coated, 100 nM Fab. For orientation: In an ELISA, binding on a coated surface is turned into a signal by an enzyme label.

For assay [4], the target named is T2, Recombinant Human DLL4. Description: ECL 96-well plate binding assay, DLL4 immobilised, 10 nM Fab.
The target of assay [5] is T3, Recombinant Human DLL4 (delta-like protein 4) (human, UniProt Q9NR61 27-529).
T3 construct: Bought recombinant human DLL4 (R&D Systems Cat#1506-D4/CF), coated on the plate; also called rHuman DLL4; Delta-like 4
Description: 96-well plate ECL (MSD) binding assay on coated DLL4, 10 nM Fab.

The target in assay [6] is T3, Recombinant Human DLL4 (delta-like …). Description: ELISA on coated DLL4, 100 nM Fab.
Assay [7] deals with T4, Recombinant Human DLL4 (delta-like protein 4) (human, UniProt Q9NR61 27-529).
T4 construct: Bought recombinant protein (R&D Systems Cat#1506-D4/CF); also called rHuman DLL4; Delta-like 4
Kind of assay: ECL (MSD) multispot assay; Fab 0.01 µM.

Assay [8] has as its target T4, Recombinant Human DLL4 (delta-like …). Description: ECL (MSD) multispot assay; Fab 0.1 µM.
Assay [9] concerns the target T5, Recombinant Human DLL4 (R&D Systems Cat#1506-D4/CF) (human, UniProt Q9NR61 27-524).
T5 construct: Bought recombinant protein; also called delta-like protein 4; Delta-like 4
Description: ECL (Meso Scale Discovery) multispot binding assay, DLL4 immobilised, Fab at 100 nM.

B1: Fab VH1-46_IGHD6-6*01_IGHJ1*01 S105A & L6_IGKJ1*01 (Fab, V domains shown)
VH: QVQLVQSGAEVKKPGASVKVSCKASGYTFTSYYMHWVRQAPGQGLEWMGIINPSGGSTSYAQKFQGRVTMTRDTSTSTVYMELSSLRSEDTAVYYCAREEYSSSAAEYFQHWGQGTLVTVSS
VL: not shown
notes: Heavy chain CDR3 alanine mutant of the parent Fab; Fab format with CH1, kappa CL, His6 and Flag tags from the expression plasmids
With B1, in assay [1], the “ECL signal” value amounted to 1100 and the Signal/Noise worked out at 2.9. In assay [2], the “ECL signal” value was determined as 181 and the Signal/Noise is 1.2.

B2: Fab VH1-46_IGHD6-6*01_IGHJ1*01 S102A/S103P/S104F/H111F/I51T/N52L/P53M/S54T/G56H & L6_IGKJ1*01 (Fab, V domains shown)
VH: B1 VH with I51T, N52L, P53M, S54T, G56H, S102A, S103P, S104F, A105S, H111F
VL: not shown
notes: Tested as Fab expressed in E. coli (CH1 with His6/Flag tags from plasmid A; kappa CL from plasmid C); also called APFF TLMTH
Take B2: in assay [3], the “ELISA signal” value was 0.341. Moreover, in assay [4], the “ECL signal” value worked out at 105000.

B3: Fab VH1-46_IGHD6-6*01_IGHJ1*01 S102A/S103P/S104F/H111F/I51T/N52L/P53A/S54T/G56H & L6_IGKJ1*01 (Fab, V domains shown)
VH: B1 VH with I51T, N52L, P53A, S54T, G56H, S102A, S103P, S104F, A105S, H111F
VL: not shown
notes: Tested as Fab expressed in E. coli (CH1 with His6/Flag tags from plasmid A; kappa CL from plasmid C); also called APFF TLATH
Regarding B3, the “ELISA signal” value in assay [3] is 0.33. Also, the “ECL signal” value in [4] worked out at 163000.

B4: Fab VH1-46_IGHD6-6*01_IGHJ1*01 S104A & L6_IGKJ1*01 (Fab, V domains shown)
VH: B1 VH with S104A, A105S
VL: not shown
notes: as for B1
Turning to B4, the “ECL signal” value worked out at 163000 in assay [1] and 3610 in assay [2]. Besides, the Signal/Noise came to 431 in [1] and 24.8 in assay [2].

B5: Fab VH1-46_IGHD6-6*01_IGHJ1*01 S102A/S103P/S104F/H111F/I51T/N52L/P53R/S54T/G56H & L6_IGKJ1*01 (Fab, V domains shown)
VH: B1 VH with I51T, N52L, P53R, S54T, G56H, S102A, S103P, S104F, A105S, H111F
VL: not shown
notes: Tested as Fab expressed in E. coli (CH1 with His6/Flag tags from plasmid A; kappa CL from plasmid C); also called APFF TLRTH
On to B5, for which the “ELISA signal” value in [3] is 0.07. The “ECL signal” value in [4] is 63200.

B6: Fab VH1-46_IGHD6-6*01_IGHJ1*01 H111A & L6_IGKJ1*01 (Fab, V domains shown)
VH: B1 VH with A105S, H111A
VL: not shown
notes: as for B1
As for B6, in assay [1], the “ECL signal” value stood at 11600 and the Signal/Noise came to 30.6. In assay [2], the “ECL signal” value is 5020 and the Signal/Noise stood at 34.4.

B7: Fab VH1-46_IGHD6-6*01_IGHJ1*01 S102A/S103P/S104F/H111F/I51T/N52L/P53T/S54T/G56H & L6_IGKJ1*01 (Fab, V domains shown)
VH: B1 VH with I51T, N52L, P53T, S54T, G56H, S102A, S103P, S104F, A105S, H111F
VL: not shown
notes: Tested as Fab expressed in E. coli (CH1 with His6/Flag tags from plasmid A; kappa CL from plasmid C); also called APFF TLTTH
For B7, the “ELISA signal” value in assay [3] amounted to 0.219. Moreover, the “ECL signal” value in [4] stood at 125000.

B8: Fab VH1-46_IGHD6-6*01_IGHJ1*01 S102A/S103P/S104F/H111F/I51T/N52L/P53Y/S54T/G56H & L6_IGKJ1*01 (Fab, V domains shown)
VH: B1 VH with I51T, N52L, P53Y, S54T, G56H, S102A, S103P, S104F, A105S, H111F
VL: not shown
notes: Tested as Fab expressed in E. coli (CH1 with His6/Flag tags from plasmid A; kappa CL from plasmid C); also called APFF TLYTH
On to B8, for which the “ELISA signal” value in assay [3] is 0.274. Further, the “ECL signal” value in [4] was 99500.

B9: Fab VH1-46_IGHD6-6*01_IGHJ1*01 E100A & L6_IGKJ1*01 (Fab, V domains shown)
VH: B1 VH with E100A, A105S
VL: not shown
notes: as for B1
As to B9, in assay [1], the “ECL signal” value is 1300 and the Signal/Noise turned out to be 3.4. In addition, in assay [2], the “ECL signal” value worked out at 536 and the Signal/Noise turned out to be 3.7.

B10: Fab VH1-46_IGHD6-6*01_IGHJ1*01 S102A/S103P/S104F/H111F/I51G/N52L/S54T/G56H (APFF GLTH) & L6_IGKJ1*01 (Fab, V domains shown)
VH: B1 VH with I51G, N52L, S54T, G56H, S102A, S103P, S104F, A105S, H111F
VL: not shown
notes: Fab made in E. coli; CH1 with tags and kappa CL are not included
As for B10, in [5], the “ECL signal” value was 131000. Further, the “ELISA signal” value in [6] amounted to 0.407.

B11: Fab VH1-46_IGHD6-6*01_IGHJ1*01 S103A & L6_IGKJ1*01 (Fab, V domains shown)
VH: B1 VH with S103A, A105S
VL: not shown
notes: as for B1
Turning to B11, the entries for the “ECL signal” value in assay [1] and in [2] were 11600 and 5150, respectively. The Signal/Noise in assay [1] was determined as 30.5; in [2], 35.3.

B12: Fab VH1-46_IGHD6-6*01_IGHJ1*01 S102A & L6_IGKJ1*01 (Fab, V domains shown)
VH: B1 VH with S102A, A105S
VL: not shown
notes: Fab; The VH was cloned into Plasmid A (CH1, His6 and Flag tags) and the kappa VL into Plasmid C (kappa CL); expressed in E. coli
B12: in assay [7], the “ECL signal” value stood at 2600 and the Signal/Noise was determined as 10. In [8], the “ECL signal” value was 15800 and the Signal/Noise came to 71.6.

B13: Fab VH1-46_IGHD6-6*01_IGHJ1*01 S102A/S103P/S104F/H111F/I51T/N52L/P53N/S54T/G56H & L6_IGKJ1*01 (Fab, V domains shown)
VH: B1 VH with I51T, N52L, P53N, S54T, G56H, S102A, S103P, S104F, A105S, H111F
VL: not shown
notes: Tested as Fab expressed in E. coli (CH1 with His6/Flag tags from plasmid A; kappa CL from plasmid C); also called APFF TLNTH
Take B13: the “ELISA signal” value in assay [3] stood at 0.021. Moreover, the “ECL signal” value in assay [4] is 114000.

B14: Fab VH5-51_IGHD5-18*01>3_IGHJ4*01 G100K/G104T (H:KT) & V3-4_IGLJ1*01 T31A (Fab, V domains shown)
VH: EVQLVQSGAEVKKPGESLKISCKGSGYSFTSYWIGWVRQMPGKGLEWMGIIYPGDSDTRYSPSFQGQVTISADKSISTAYLQWSSLKASDTAMYYCARRKYSYTYDYFDYWGQGTLVTVSS
VL: QTVVTQEPSFSVSPGGTVTLTCGLSSGSVSASYYPSWYQQTPGQAPRTLIYSTNTRSSGVPDRFSGSILGNKAALTITGAQADDESDYYCVLYMGSGISYVFGTGTKVTVL
notes: Fab expressed in E. coli; Plasmid A adds CH1 with His6 and Flag tags to the heavy chain; Plasmid E adds lambda CL to the light chain; also called G100K/G104T & T31A
As for B14, in [9], the “ECL signal” value worked out at 13500.

B15: Fab VH5-51_IGHD5-18*01>3_IGHJ4*01 G100K/G104T (H:KT) & V3-4_IGLJ1*01 V29A (Fab, V domains shown)
VH: B14 VH
VL: B14 VL with V29A, A31T
notes: Fab expressed in E. coli; Plasmid A adds CH1 with His6 and Flag tags to the heavy chain; Plasmid E adds lambda CL to the light chain; also called G100K/G104T & V29A
Turning to B15, the “ECL signal” value in assay [9] was 9320.

B16: Fab VH5-51_IGHD5-18*01>3_IGHJ4*01 G100K/G104T (H:KT) & V3-4_IGLJ1*01 Y33A (Fab, V domains shown)
VH: B14 VH
VL: B14 VL with A31T, Y33A
notes: Fab expressed in E. coli; Plasmid A adds CH1 with His6 and Flag tags to the heavy chain; Plasmid E adds lambda CL to the light chain; also called G100K/G104T & Y33A
Take B16: the “ECL signal” value in assay [9] turned out to be 7700.

B17: Fab VH5-51_IGHD5-18*01>3_IGHJ4*01 G100K/G104T (H:KT) & V3-4_IGLJ1*01 Y34A (Fab, V domains shown)
VH: B14 VH
VL: B14 VL with A31T, Y34A
notes: Fab expressed in E. coli; Plasmid A adds CH1 with His6 and Flag tags to the heavy chain; Plasmid E adds lambda CL to the light chain; also called G100K/G104T & Y34A
On to B17, for which the “ECL signal” value in [9] is 2200.
